Results: publication PMC8326586

The sequences below were run on T1, AbTetR (TetR class G) (Acinetobacter baumannii AYE), ORF:695ec09f (assay: EMSA).
T1 sequence: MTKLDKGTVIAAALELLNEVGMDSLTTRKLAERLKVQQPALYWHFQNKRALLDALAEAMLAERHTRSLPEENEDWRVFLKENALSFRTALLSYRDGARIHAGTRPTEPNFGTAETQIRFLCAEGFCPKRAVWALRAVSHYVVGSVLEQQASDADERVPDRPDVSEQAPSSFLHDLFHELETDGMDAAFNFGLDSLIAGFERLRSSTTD
“CTGAAACTCCAGCGCCGCTCAATGGAGCGACTTTATCAACGATAAGGAGATGGACATATAACTTATCGGTGATAAATTGTCAAGCACTGGCGAAGGAACGTGAATGACCAAACTGGACAAGGGCACCGTGATCGCGGCGGCGCTAGAGCTGTTGAACGAGGTTGGCATGGACAGCCTGACGACGCGGAAGCTCGCTGAACGCCTCAAGGTTCAGCA (double strand) [216 bp tetR-tetA(G) fragment]” was tested, and the binding was “binds”. In the case of “GCACAAGCTCACGCAGAAGCGTCGGAAGGACGGGCATGATGAGGCCGAGACCCATGGCGTCAAGACCCACGATCAGCAGGGCAATGATGGCAGAGCTGCGCACCTGAAACTCCAGCGCCGCTCAATGGAGCGACTTTATCAACGATAAGGAGATGGACATATAACTTATCGGTGATAAATTGTCAAGCACTGGCGAAGGAACGTGA (double strand) [206 bp tetR-tetA(G) fragment]”, the binding is reported as “binds”. “ATCAACGATAAGGAGATGGACATATAACTTATCGGTGATAAATTGTCAAGCACTGGCGAAGGAACGTGA (double strand) [70 bp tetR-tetA(G) fragment]” was tested, and the binding was “binds”. For “CTGAAACTCCAGCGCCGCTCAATGGAGCGACTTTATCAACGATAAGGAGATGGACATATAACTTA (double strand) [65 bp tetR-tetA(G) fragment]”, the binding was “binds”. “CGAATCAAGCAGGAACCATCCAAGATTGGCATAAAAGGTACATTCAACCTTTTCACTGCATCCCATTGGTGCACGTACTCGGTCTTGCAACTCGGA (double strand) [96 bp non-binding sequence]” was tested, and the binding was “no binding”. In the case of “CTGAAACTCCAGCGCCGCTCAATGGAGCGACTTTATCAACGATAAGGAGATGGACATATAACTTATCGGTGATAAATTGTCAAGCACTGGCGAAGGAACGTGA (double strand) [103 bp tetR-tetA(G) fragment]”, the binding is reported as “binds”.
